B1: Bax C-terminal 20-residue peptide, lysines replaced with leucines (charge neutralization mutant) (peptide)
peptide: VTIFVAGVLTASLTIWLLMG
notes: K189/K190 replaced by LL; also called CT20 Bax LL; CT20-LL
B2: Bax C-terminal 20-residue peptide (CT20p), wild type (peptide)
peptide: Ac-VTIFVAGVLTASLTIWKKMG-NH2
notes: Synthetic peptide of the last 20 amino acids of Bax; also called CT20 Bax WT; CT20 peptide
B3: Bax C-terminal 20-residue peptide, lysines replaced with glutamates (charge reversal mutant) (peptide)
peptide: VTIFVAGVLTASLTIWEEMG
notes: K189/K190 replaced by EE; also called CT20 Bax EE; CT20-EE

Target: the molecule itself
Test: kinetics of calcein release from lipid vesicles; peptide self-association within the membrane

Binding result, binds:
B1
B2
B3
